Laboratory results published in PMC12147029, “Rare SNP in the HELB gene interferes with RPA interaction and cellular function of HELB”.

Assays:
HELB D506G = HELB D506G (Homo sapiens, UniProt Q8NG08 1-1087, D506G); experiment: fluorescence anisotropy; 10 mM Mg(OAc)2, no nucleotide; 25 mM HEPES pH 7.5, 10 mM KOAc, 10 mM Mg(OAc)2, 0.1 mM EDTA, 2 mM beta-mercaptoethanol, 0.1 mg/ml BSA, 1 nM DNA, 30 min, room temperature; settings: protein: recombinant; tags: none (His-SUMO cleaved by Ulp1); label: 3'-6-carboxyfluorescein; single strand
HELB WT = HELB WT (Homo sapiens, UniProt Q8NG08 1-1087); experiment: as above; settings: protein: recombinant; tags: none (His-SUMO cleaved by Ulp1); label: 3'-6-carboxyfluorescein; single strand
HELB WT, sequence (Q8NG08 whole entry): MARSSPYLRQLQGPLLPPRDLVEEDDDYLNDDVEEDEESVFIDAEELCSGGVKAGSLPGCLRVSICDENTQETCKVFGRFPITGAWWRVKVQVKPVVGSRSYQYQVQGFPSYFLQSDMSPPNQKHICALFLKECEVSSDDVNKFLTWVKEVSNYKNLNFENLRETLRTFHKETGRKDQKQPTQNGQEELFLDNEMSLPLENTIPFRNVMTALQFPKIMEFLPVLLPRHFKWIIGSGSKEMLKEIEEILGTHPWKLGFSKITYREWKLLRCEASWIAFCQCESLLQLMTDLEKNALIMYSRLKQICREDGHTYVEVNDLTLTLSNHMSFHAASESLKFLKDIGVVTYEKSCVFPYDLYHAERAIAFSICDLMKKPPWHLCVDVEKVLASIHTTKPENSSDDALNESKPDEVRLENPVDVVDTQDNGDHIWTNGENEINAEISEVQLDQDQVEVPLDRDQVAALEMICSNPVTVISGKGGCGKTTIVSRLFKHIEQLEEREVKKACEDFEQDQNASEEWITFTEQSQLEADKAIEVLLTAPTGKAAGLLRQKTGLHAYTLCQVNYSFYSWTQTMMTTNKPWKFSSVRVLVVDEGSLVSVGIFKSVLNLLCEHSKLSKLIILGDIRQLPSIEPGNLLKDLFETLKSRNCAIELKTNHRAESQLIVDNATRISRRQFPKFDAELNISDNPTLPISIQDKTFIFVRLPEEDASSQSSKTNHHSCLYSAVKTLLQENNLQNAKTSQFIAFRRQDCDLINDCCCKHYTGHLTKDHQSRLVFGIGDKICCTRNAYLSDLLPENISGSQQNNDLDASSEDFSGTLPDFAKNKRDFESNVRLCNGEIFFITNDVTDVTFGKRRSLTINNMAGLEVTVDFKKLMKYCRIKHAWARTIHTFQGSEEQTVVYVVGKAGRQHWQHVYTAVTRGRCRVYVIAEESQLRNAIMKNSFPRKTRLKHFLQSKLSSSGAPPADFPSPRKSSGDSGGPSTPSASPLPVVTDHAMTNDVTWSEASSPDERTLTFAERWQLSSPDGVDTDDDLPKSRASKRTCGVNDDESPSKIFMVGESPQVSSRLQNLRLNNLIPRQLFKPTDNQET

HELB D506G, sequence (Q8NG08 whole entry D506G): as the sequence (Q8NG08 whole entry) above, with D506G counted along it

TTTTTTTTTTTTTTTT (ssDNA) [3'-FAM-T16]
Kd (HELB D506G): 2.2 ± 0.4 nM
Kd (HELB WT): 3.4 ± 0.2 nM
